Experimental data taken from patent publication US20240181006A1 (Merck KGaA, published 2024).
Blank lines part the entries; values can stand above or below the binder they belong to.

Columns and labels:
human MMP13 (activated) [1] = molecular target: T1, human MMP13 (activated) (human, UniProt P45452 104-471); assay: cell-based or functional assay
rat MMP13 (activated) [2] = molecular target: T2, rat MMP13 (activated) (rat, UniProt P23097 99-466); assay: cell-based or functional assay
dog MMP13 (activated) = dog MMP13 (activated) (dog, UniProt A0A8I3MWY2 129-496); assay: cell-based or functional assay
bovine MMP13 (activated) = bovine MMP13 (activated) (bovine, UniProt O77656 104-471, limits assumed); assay: cell-based or functional assay
[3] = molecular target: cynomolgus MMP13 (activated) (cynomolgus, UniProt A0A2K5U988 104-471); assay: cell-based or functional assay
human ADAMTS5 [4] = molecular target: T3, human ADAMTS5 (human, UniProt Q9UNA0 262-622, limits assumed); assay: cell-based or functional assay
T3 sequence: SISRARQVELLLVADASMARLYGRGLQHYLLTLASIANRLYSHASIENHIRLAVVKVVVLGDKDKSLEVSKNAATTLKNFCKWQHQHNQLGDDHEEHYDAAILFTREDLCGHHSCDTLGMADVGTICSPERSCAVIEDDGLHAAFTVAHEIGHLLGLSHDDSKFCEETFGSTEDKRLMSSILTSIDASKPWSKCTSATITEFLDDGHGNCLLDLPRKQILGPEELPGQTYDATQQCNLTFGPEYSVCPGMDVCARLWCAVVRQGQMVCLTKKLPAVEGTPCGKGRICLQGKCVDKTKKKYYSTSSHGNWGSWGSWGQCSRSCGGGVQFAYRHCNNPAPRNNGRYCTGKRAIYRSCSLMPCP

human ADAMTS5 [5] = molecular target: T3, human ADAMTS5; assay: SPR (Biacore T100), ADAMTS5 immobilized on CM5, 100 nM ISVD, Experiment 1
Experimental: (§1) Species cross-reactivity was initially evaluated via SPR-based off-rate analysis on a Biacore T100 instrument. Polypeptides were tested for binding to human, cynomolgus monkey (“cyno”), guinea pig, mouse, and bovine ADAMTS5. To this end, recombinant ADAMTS5 was immobilized onto a CM5 chip via amine coupling using EDC and NHS. […] Off-rate for each individual ADAMTS5 was determined by fitting a 1:1 interaction model (Langmuir model) onto the individual dissociation curves using the BIA Evaluation software. As a reference, off-rates on human ADAMTS5 were determined in each experiment.

cynomolgus ADAMTS5 [6] = molecular target: T4, cynomolgus ADAMTS5 (cynomolgus, UniProt A0A2K5X879 260-620); assay: as above
T4 construct: also called cyno ADAMTS5
T4 sequence: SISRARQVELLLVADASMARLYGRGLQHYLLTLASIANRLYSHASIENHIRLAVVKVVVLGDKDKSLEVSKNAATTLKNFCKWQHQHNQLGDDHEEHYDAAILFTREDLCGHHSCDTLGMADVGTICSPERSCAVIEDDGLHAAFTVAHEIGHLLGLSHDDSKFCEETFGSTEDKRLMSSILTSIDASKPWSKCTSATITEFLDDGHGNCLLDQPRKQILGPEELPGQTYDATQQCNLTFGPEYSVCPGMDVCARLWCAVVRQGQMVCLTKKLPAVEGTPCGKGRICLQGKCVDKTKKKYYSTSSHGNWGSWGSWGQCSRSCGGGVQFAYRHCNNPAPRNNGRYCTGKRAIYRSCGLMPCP
Experimental: as §1

guinea pig ADAMTS5 = guinea pig ADAMTS5 (guinea pig); assay: as above
Experimental: as §1

human ADAMTS5 [7] = molecular target: T3, human ADAMTS5; assay: SPR (Biacore T100), ADAMTS5 immobilized on CM5, 100 nM ISVD, Experiment 2
Experimental: as §1

mouse ADAMTS5 = molecular target: T5, mouse ADAMTS5 (mouse, UniProt Q9R001 262-622, limits assumed); assay: as above
T5 sequence (looked up): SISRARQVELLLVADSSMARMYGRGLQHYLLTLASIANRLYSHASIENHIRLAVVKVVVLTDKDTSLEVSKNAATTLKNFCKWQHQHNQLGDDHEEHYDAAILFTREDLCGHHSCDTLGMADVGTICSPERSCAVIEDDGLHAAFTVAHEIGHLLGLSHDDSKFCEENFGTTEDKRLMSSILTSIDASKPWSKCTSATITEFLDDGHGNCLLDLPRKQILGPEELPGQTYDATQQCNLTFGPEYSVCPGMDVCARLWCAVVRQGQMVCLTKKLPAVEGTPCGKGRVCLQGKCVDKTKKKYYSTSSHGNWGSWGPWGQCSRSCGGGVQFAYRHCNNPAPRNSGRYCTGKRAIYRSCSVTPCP
Experimental: as §1

human ADAMTS5 [8] = molecular target: T3, human ADAMTS5; assay: SPR (Biacore T100), ADAMTS5 immobilized on CM5, 100 nM ISVD, Experiment 3
Experimental: as §1

cynomolgus ADAMTS5 [9] = molecular target: T4, cynomolgus ADAMTS5; assay: KinExA, in solution (N=1)
Experimental: (§2) All dilutions were prepared in sample buffer (PBS+0.1% BSA+0.02% NaN₃).
(§3) Percent free Nanobody construct was plotted as a function of ADAMTS5 concentration and fitted using the KinExA Pro Software v3.6.5 to determine the KD.

rat ADAMTS5 = molecular target: T6, rat ADAMTS5 (rat, UniProt Q6TY19 262-928); assay: KinExA, in solution (N=1)
T6 sequence: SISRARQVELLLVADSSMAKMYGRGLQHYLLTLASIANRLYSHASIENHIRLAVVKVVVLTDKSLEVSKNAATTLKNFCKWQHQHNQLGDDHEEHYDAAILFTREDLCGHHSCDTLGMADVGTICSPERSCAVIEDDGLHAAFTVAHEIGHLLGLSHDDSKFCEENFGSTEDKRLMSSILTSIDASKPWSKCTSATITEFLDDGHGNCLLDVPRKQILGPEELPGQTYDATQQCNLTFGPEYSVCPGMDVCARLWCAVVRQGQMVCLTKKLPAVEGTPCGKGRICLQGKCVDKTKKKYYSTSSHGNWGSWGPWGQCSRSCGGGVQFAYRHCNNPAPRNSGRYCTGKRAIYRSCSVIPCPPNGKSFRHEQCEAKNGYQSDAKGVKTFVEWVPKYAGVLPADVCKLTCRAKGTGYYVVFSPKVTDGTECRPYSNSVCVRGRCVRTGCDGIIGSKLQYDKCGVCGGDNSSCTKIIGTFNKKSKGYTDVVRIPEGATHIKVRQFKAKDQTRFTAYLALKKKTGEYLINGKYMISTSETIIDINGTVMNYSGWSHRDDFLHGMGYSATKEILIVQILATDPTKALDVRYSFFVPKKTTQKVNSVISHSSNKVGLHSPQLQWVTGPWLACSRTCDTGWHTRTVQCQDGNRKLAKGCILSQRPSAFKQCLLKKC
Experimental: as §2, §3

human ADAMTS5 [10] = molecular target: T3, human ADAMTS5; assay: cell-based or functional assay; remark: listed apart in the source
cynomolgus ADAMTS5 [11] = molecular target: T4, cynomolgus ADAMTS5; assay: cell-based or functional assay
rat MMP13 (activated) [12] = molecular target: T2, rat MMP13 (activated); assay: cell-based or functional assay; remark: listed apart in the source
[13] = molecular target: T7, human MMP13 catalytic domain (human, UniProt P45452 104-274); assay: cell-based or functional assay
[14] = molecular target: T8, cynomolgus MMP13 catalytic domain (cynomolgus, UniProt A0A2K5U988 104-274); assay: cell-based or functional assay
[15] = molecular target: T9, rat MMP13 catalytic domain (rat, UniProt P23097 99-269); assay: cell-based or functional assay
human ADAMTS5 [16] = molecular target: T3, human ADAMTS5; assay: KinExA, in solution, without Aggrecan G1-IGD-G2 (average, N=3)
Experimental: as §2, §3

rat MMP13 (activated) [17] = molecular target: T2, rat MMP13 (activated); assay: FRET-based kinetic enzyme assay, IC50 equals KI (average, N=2)
Experimental: (§4) All dilutions were made in assay buffer (50 mM Tris (pH 7.5), 100 mM NaCl, 10 mM CaCl₂)*2H₂O, 0.01% Tween20). […] This collagen-based substrate contains the generic MMP cleavage sequence Proline-Leucine-Glycine-Leucine (PLGL) and is labelled with a fluorochrome, Mca, and a quencher, Dpa. […] Starting within one minute after addition of the substrate, fluorescence was measured kinetically every minute for a total of 120 cycles (2 hours) using a Tecan F200 plate reader.
(§5) The obtained progress curves (fluorescent signal in function of reaction time) were analyzed using GraphPad Prism software, by fitting the linear portion of each progress curve with a straight line (Y=slope*X+Y-intercept).

human MMP13 (activated) [18] = molecular target: T1, human MMP13 (activated); assay: FRET-based kinetic enzyme assay, IC50 equals KI (average, N=3)
Experimental: as §4, §5

[19] = molecular target: T8, cynomolgus MMP13 catalytic domain; assay: as above
Experimental: as §4, §5

[20] = molecular target: T9, rat MMP13 catalytic domain; assay: as above
Experimental: as §4, §5

[21] = molecular target: T7, human MMP13 catalytic domain; assay: FRET-based kinetic enzyme assay, IC50 equals KI (average, N=6)
Experimental: as §4, §5

human ADAMTS5 [22] = molecular target: T3, human ADAMTS5; assay: KinExA, in solution, in presence of 2 nM Aggrecan G1-IGD-G2 (average, N=3)
Experimental: as §2, §3

[23] = molecular target: T10, recombinant cynomolgus Aggrecan G1-IGD-G2 (cynomolgus); assay: SPR (ProteOn XPR36), Aggrecan G1-IGD-G2 immobilized, 949 as analyte (average, N=2)
T10 construct: domain: G1-IGD-G2; also called Cy G1-IGD-G2
Experimental: (§6) Dissociation time was 10 min. After each sample injection the surfaces were regenerated with 10 mM glycine pH 1.5. […] This change in refractive index causes a change in the intensity and angle of reflected light which is quantitatively measured in real-time and plotted as response units (RU) versus time on a sensorgram. The kinetic constants were calculated from the obtained sensorgrams using ProteOn Manager 3.1.0 version 3.1.0.6 software and the ‘kinetic Langmuir kₐ/kd simultaneous’ model.

[24] = molecular target: T11, recombinant rat Aggrecan G1-IGD-G2 (rat, UniProt P07897 20-684, limits assumed); assay: SPR (ProteOn XPR36), Aggrecan G1-IGD-G2 immobilized, 949 as analyte (average, N=3)
T11 construct: domain: G1-IGD-G2; also called Rat G1-IGD-G2
Experimental: as §6

[25] = molecular target: T12, recombinant human Aggrecan G1-IGD-G2 (human, UniProt P16112 20-676); assay: SPR (ProteOn XPR36), Aggrecan G1-IGD-G2 immobilized, 949 as analyte (average, N=4)
T12 construct: also called Hu G1-IGD-G2
Experimental: as §6

IC50, human collagenolytic assay (human MMP13 (activated) [1]): 1.4 nM | IC50, human fluorogenic collagen assay (human MMP13 (activated) [1]): 8.3 nM | IC50, human fluorogenic peptide assay (human MMP13 (activated) [1]): 1.4 nM | IC50, rat fluorogenic peptide assay (rat MMP13 (activated) [2]): 1.1 nM | IC50, dog fluorogenic peptide assay (dog MMP13 (activated)): 1 nM | IC50, bovine fluorogenic peptide assay (bovine MMP13 (activated)): 3.1 nM | IC50, cyno fluorogenic peptide assay [3]: 1.4 nM
B1: anti-MMP13 ISVD 62C02 (VHH)
VHH: EVQLVESGGGVVQPGGSLRLSCAASGFAFSAAYMSWVRQAPGKGLEWVSSISDDGSKTYYADSVKGRFTISRDNSKNTVYLQMNSLRPEDTALYYCNTGYGATTTRPGRYWGQGTLVTVSS

IC50, Human AlphaLISA enzymatic assay (human ADAMTS5 [4]): 0.075 nM | IC50, Human FRET enzymatic assay (human ADAMTS5 [4]): 1.8 nM | koff (human ADAMTS5 [5]): 3.3e-05 s⁻¹ | koff (cynomolgus ADAMTS5 [6]): 2.2e-05 s⁻¹ | koff (guinea pig ADAMTS5): 3.4e-05 s⁻¹ | koff (human ADAMTS5 [7]): 6.5e-05 s⁻¹ | koff (mouse ADAMTS5): 0.00029 s⁻¹ | koff (human ADAMTS5 [8]): 9.7e-05 s⁻¹
B2: anti-ADAMTS5 ISVD 02F03 (VHH)
VHH: EVQLVESGGGVVQPGGSLRLSCAASGRTVSSYAMGWFRQAPGKEREFVAGISRSAERTYYVDSLKGRFTISRDNSKNTVYLQMNSLRPEDTALYYCAADLDPNRIFSREEYAYWGQGTLVTVSS
notes: Purified monovalent ISVD; also called 2F03 ATS5

Kd (cynomolgus ADAMTS5 [9]): 0.0244 nM | Kd (rat ADAMTS5): 0.0252 nM | IC50 (read off the curve); FRET-based enzymatic activity assay, Vi/V0 (human ADAMTS5 [10]): ~4 nM | IC50 (read off the curve); FRET-based enzymatic activity assay, Vi/V0 (cynomolgus ADAMTS5 [11]): 3 to 4 nM | IC50 (read off the curve); FRET-based enzymatic activity assay, Vi/V0 [right panel] (rat MMP13 (activated) [12]): ~10 nM | IC50 (read off the curve); FRET-based enzymatic activity assay, Vi/V0 [left panel] [13]: ~30 nM | IC50 (read off the curve); FRET-based enzymatic activity assay, Vi/V0 [left panel] [14]: ~20 nM | IC50 (read off the curve); FRET-based enzymatic activity assay, Vi/V0 [left panel] [15]: ~30 nM | Kd (human ADAMTS5 [16]): 0.0327 nM | Ki (rat MMP13 (activated) [17]): 13 nM | Ki (human MMP13 (activated) [18]): 2.92 nM | Ki [19]: 20.2 nM | Ki [20]: 26.6 nM | Ki [21]: 27.9 nM | Kd (human ADAMTS5 [22]): 0.0266 nM | Kd [23]: 0.016 nM | Kd [24]: 0.0166 nM | Kd [25]: 0.014 nM
B3: polypeptide 949 (62C02-2F03-114F08-114F08, 35GS linkers) (other)
chain: EVQLVESGGGVVQPGGSLRLSCAASGFAFSAAYMSWVRQAPGKGLEWVSSISDDGSKTYYADSVKGRFTISRDNSKNTVYLQMNSLRPEDTALYYCNTGYGATTTRPGRYWGQGTLVTVSSGGGGSGGGGSGGGGSGGGGSGGGGSGGGGSGGGGSEVQLVESGGGVVQPGGSLRLSCAASGRTVSSYAMGWFRQAPGKEREFVAGISRSAERTYYVDSLKGRFTISRDNSKNTVYLQMNSLRPEDTALYYCAADLDPNRIFSREEYAYWGQGTLVTVSSGGGGSGGGGSGGGGSGGGGSGGGGSGGGGSGGGGSEVQLVESGGGVVQPGGSLRLSCAASGSTFIINVVRWYRRAPGKQRELVATISSGGNANYVDSVRGRFTISRDNSKNTVYLQMNSLRPEDTALYYCNVPTTHYGGVYYGPYWGQGTLVTVSSGGGGSGGGGSGGGGSGGGGSGGGGSGGGGSGGGGSEVQLVESGGGVVQPGGSLRLSCAASGSTFIINVVRWYRRAPGKQRELVATISSGGNANYVDSVRGRFTISRDNSKNTVYLQMNSLRPEDTALYYCNVPTTHYGGVYYGPYWGQGTLVTVSSA
notes: Tetravalent, trispecific VHH construct: anti-MMP13, anti-ADAMTS5 and two anti-Aggrecan units; also called C010100949; ALX-1011
